Source: the DeepSol protein solubility set

test: soluble on expression in E. coli; label from the status in PepcDB or PDB records

Soluble on expression in E. coli, not soluble:
MGSDKIHHHHHHMRIMPINSFENYPMSWKPSIDKAEKPIYKALAGQLEQDILNGVLLPGTKLPPQRELADYLDLNVSTISKAFKVCELKGLLSATVGSGTFVSYDALSNAYLLEDTKPTHLIEMGAILPDHASYEPLLYQLKNMVHEEDYEKWFSYGRAGESLWQKDAAVKLIQRGGFETSVDHILFANGGQNAIAATLASLCKPGDRIGVDHHTYPGLKTVASLLSVQIVPIKSENDEMSPESLEYACKNENIKGLYLIPDYHNPTTSFMSVENRRMVADIVKKYNLFVIEDASYHLLNKNPLPALASFAPQQVIHIASLSKSLAPGLRLAYVAVPRQYKEPISKALYNLNITVSPLLAELTARTIVSNQFEVLIESHREQTIRRNQLVNRYVAGYTCLGVETGIFRWLLLPGKMSGAEFEELAARLGVQVYAAERFVVGNSCPERAVRVSVCAPKTLEELEQGLMILRRLLDDLT
MGSDKIHHHHHHMRIQQLRYLEKIATTGSINEAAKQLFISQPSLSQAMKELEKEYQVQLFYRHKTGITLTDAGREFINYSRSVLDQVNLLNEHFGQGTVRKRIFSVSAQHYAFVVNAFVELVKEIGGDTYQFTLRETETANVLNDVQTLKSELGVIYLNKFNQTVLSRLIADKDLSFVPLFEARPHVFVGRDNPLTHKQDLTLDDLRDYPYLSYEQGDTSSFYFAEEILSTLPHKKHIRISDRATIFNLMVGLNGYTISSGIISSELNDEKIVAIPLKVDDAMTLGYLRHKKIELSATAQRYLTLLKQHIQGYGFDVFNDN
MGSDKIHHHHHHMRKISIVIPVYNTEKYLKLSVDSVLSQSYQDWELILVDDGSKDGSGAICDKYASEDSRIKVYHTVNQGVTAARGYGVEQSTGEWICFLDADDTLADDALQVMLGKSADCDIVIGNKRIVSGNDVTEEWMNQDDRQLQAVEFLDGLIRNKISQYITGRIFRRILFDNGTICIPRELIMAEDFIMNVQLGNKAKKIAVIRDMVYGYHVYGESVSHTFRTNLEYESRFCDCLFSALKTGGYYEEVKEAFTFQKVRALKSAFMAQQGRVNLRHPFLQEVRKEAKSIGLSRGWKLFLYLLPLKYIGYIFFRSLNK
MGSDKIHHHHHHMRLTILGSSGSVPAPGNPASGYLLTSPDAPAVIMDMGPGVLAAVQEIQDPADAHVIFSHLHTDHCADFASLMVWRRFHPTLAAKSRNLLFGPEDTPNRLGRLSSDEPDGVDDMSDTFAFDAWEERKPELIDNFTVTPFRVVHPIETYALRVEEHRTGASITYSGDSAYTEALIDAARNVDIFLCEATWGTSCDDKAPGMHMCGQDAGRIAAAAGVKKLIITHVPPWIDAEATVAAAAEHFDGPIELARSGMVIEF
MGSDKIHHHHHHMRNMNIEEIRNSFLSGRPAVLIDEERENEADLVFPAEIATPKVVNFMLSAKGLLCLALDMEEGIKRGFFKLPNNGGETNFLIPVDYKDVFTGITAEERALTARKVAEGLGIENFRYPGHLPLLGGLGLNKRKGHTEASLELVEMAGFKRYALIIEILDDKGYSHNLDYAFHFAKEHDLPLIRIREIWKEFVRRKQLIHVYSKAKLPTKYGDFEIYSFKNDLDFKDHVALVKKPFKGTPLVRVHSKCLTGDTLGSLKCDCGSQLENALRTISQEGGVLIYLDQEGRGIGLREKIRAYEFQDRGLDTVEANKALGFAPDERTYEVAFQILRALGIEKIKLLTNNPSKVKALRELGIEIEDVIPLPGEINRYNFFYLKTKVEKLGHKIPGVEV
MGSDKIHHHHHHMRNSNLSKKPFIITIASTKGGSAKSTNAANIGAFCADHGLKTLLIDTDTQPTLSAYFALNYVAPGGIHEFLTYQDVEPSHIISKTTLSNLDLIQSNDPTNNVSQMLRNAPDGAIRFSFLLKKLKGYDVIIVDTRGTRDITVDMSVLAADLLFCPILPHILSAKEFIRGTMGMYQELQTFEAFGFSLPPLKAVPNCVDHTNDVKFVLGHLKQLFEQNLSADKTLLDFHIPNKVAYREAATYSLPVYRHSKAEYVVIQALCMHLLPQFAHQFEQGLSGHLGGHNV
MGSDKIHHHHHHMRRFLILFVLLVAGCTGVDPNNPQYRAFVAVAEDVEPVGEAQCRSKDPERNCDFQIQLDLNPSAPANAFQTVDRSGRPVVIFTRSMLDSFRNPDEMAFVMGHEMAHHILEHLDQQRINAVKGAVFLGELVSLEGGTPEQVANAQYVGAVVGSRSYSKAFELEADALGTLITYQAGYRPSVGVKFFEEIPDPGDVFLGTHPANPDRIRIVQRTIRKYGLN
MGSDKIHHHHHHMRRLFAIGEALIDFIPNVTHSKLKDVEQFSRQVGGAPCNVAATVSKLGGKSEMITQLGNDAFGDIIVETIEQLGVGTQYIKRTNKANTALAFVSLQDDGQRDFSFYRKPSADMLYQPENIDDIQVFQDDILHFCSVDLIESDMKYAHEKMIEKFESVDGTIVFDPNVRLPLWEDKLECQRTINAFIPKAHIVKISDEELLFITGKRNEDEAIQSLFRGRVNVVIYTQGAQGATIYTKDDYRIHHEGYQVQAIDTTGAGDAFIGAIIYCILESRYSECKDLFKEKGKDILAFSNRVAALTTTKHGAIESLPTKEDIKDYN
MGSDKIHHHHHHMRTFQYANANPSANVSPMGRTSLATSAAKARGPLNGLIAERMRQLNLSTVKDFADYAGIGRTSIHDLVRGRTTTSGTWTKPSFDTLTKLAVALDKPTHELLYLIDPEAPGANLMFDVQQVPVYIAGQVGAGPQQLWESSDVVYVERQFAENRDLIAFTVVGDSMAGGRHPIHDGDVVIVDQRVGGEVNFPVVARLKDDGHVVKRCGPAASSTAPTRTSWTLTPQSLPLTVSPTWWDASSG
MGSDKIHHHHHHMRTIEDDAALKILADVIKIPSVNDHELTVAKYLQDLLAKYDISAKIHPITGDRANLVAEIGHGQPVLAVSGHMDVVAAGDLAAWDTDPFTLVEKSGQLFGRGVTDMKAGLVALVVAMINIQQQGGPKHGTIRLLATMGEEVGEAGSAAFYQQGAMQDAAGLLIAEPSTVYGTAAEQKGSCDLKLTSKGKAVHSSTPERGYNALVPLIKLLNEANDYFETIPAGEMGPVRFNIDVLNGGDQVNSLPDLATALVNVRTIPEYDNDQVTQKLADLIAAYNQQGADIKMTAIMNESPIATTADNRLVKLVQAIGKPYAGRDVVVASSPGITDASNLAKRQPADFPFAVYGPGNMTQHQVNESLPKQMFYDFIAIYQQLFTRFLAE
MGSDKIHHHHHHMRTIWTPTLENFSGSKYEQLANAIGDAITRGELAPGSKLPPQRRLADALGVTLGTVTRAYTKAIYRGWVEARVGDGTYVRMAEPKSTGPLDLATCQQAVTDQAAFLGEVMSRMGRDPVRLAGLLDYHTANLEAQQETVLTFLARSGVDDFGGKLVFTHGAQQGLFAALAAICEPGDWVLHEAWCYPGLNRAAEALSLNLCGVSLLDDGLNLDELAACIDKHKPKAIYLTPNSQNPGCIGYSGAQRQRILALARAHDIIIIEDDVNYCTSQEWSAPIWQLAADAQSVVYLSSLSKRFAGGIRFGFMLLPARLQPRVNRIIHAHCWMVSPLLIEIGCELIRSGGIHQHRDAWIASLQQRFLTMAESLDLEAKSRGLNGRLTLPEGFRASNVIAALAAKGILARSLADFGGPANGIRFSLGRIPRGEEDEVFDRIQSTLTDVLNQGIAVV
MGSDKIHHHHHHMRVGVIGVGCSRFGRRDDAVIQELAYEAVKEALDDAGITQDEVELSVVGSVNTRGYELMPAVPVNEYCGFAGKGPLRVEAACATGAAAVYTAYTSIASGMADVAIAIGVEKMTEVDTATSLAIGGRAGNYLWEFHQYGTTFPAYYAMHATAHMAKYGTTEEQMAKVAVKAHRNAARNPKAHFQKEIAVEDVLNSRYITYPLKLYDCSPISDGSAAAILASEEKIRELGIDDVVWIDSVGYASDTSNMTNRESFVGLKATVLAREMAYRKAGIEEPVKQLDFATVHDCFTIAEIMAYEDLGFCRKGEGGKLVESGETELGGKLPVNTFGGLKAKGHPLAATGVAMVYEIVKQLRGEAGELQVELRNNRALLHNVGGTGHFAFVMIFGR
MGSDKIHHHHHHMRVSQRVVMSMTTPIDQFKGKQLDIINWWRRYPDKQTIIADGAVRSGKTFAMSISYVLWSMIVFDREQFGIAGKTIGSLRRNVIRPLKQTLQQVGFSVVDRRSENMLEISLDGRTNLYYLFGGKDESSQDLIQGITLAGMFFDEAALMPQSFVNQATARVSVTGGKYWFNMNPEGPYHWFKTDWIDQADDKRALRLHFVMTDNPSLSDEVIDRYEHMYSGVFYQRYILGQWVLADGIVYDNFDKDEMVSNPSQQPSRYYVSVDYGTQNPTVFLLWGKCGSVWYCLKEYYYDGRHSSRQKTDDEYARDFSQFVGDIRCEVIVDPSAASFIVKLRERRYRVIKADNDVLNGIRETQTAMNSGEIKFTPGLTNLFKEFASYVWDDKASQKGEDKVVKAHDHAMDAMRYFVMQVIKRRNAAHTFKNTSKYF
MGSDKIHHHHHHMRWGGASPIEATVRDLSLSRIYMRVTGDSLSTNAQDCPSSEILRIAVVSSPRSGNSWIRSTLAGALSMQEIAIHNYLDAPAVLPQRCFLQIHWYREPNFQAWLRENQFRVLTVARHPLDVLVSALHYIRYEPGTSRWLEGNVKLPGELANASPSSPEFLEYALGMGAEDLLSITYQWWNDPEVLRLRYEDAVANPEVVLGNQIAALGGSAQDVVPWLARLSIDKMRATPNRHGWQGSPGLWRRLIVPQDAIRIYRRHRRIFDTLGYTIRPYFLTRASAYRNWMERL
MGSDKIHHHHHHMRYNRTETLLQLALELSASHSGLSLTDIEQMFGVGRRTAQRMRDAIERVFPQLEEVPQPDRTKRWRLPNRVLGRVSDLNIDDIMAMETAAEILERDNRPDAAASVRRAGAKVRASLRPDDARRIEPDLEALMQAEGIAMRPGPRPKVRPELVETLRHAIMGCREIRVQYRRRYSTNEHSRVVQPYGLLYGQRHYLLAFVPEENEVRSYSFPNIIGVEETGNSFVRDPAFSLTEYAARSFGLYQEEPYEVMWRFSPDAATDAKEFLFHPSQTHESQPDGSLIVRFKAGGLLEMAWHLYQWGDAVEVLEPEKLRAIHERSKVSWVARP
MGSDKIHHHHHHMSAEDYKNLPVTVEKPIPVVYDLGNLAAFDSNVLDKNDLDSSNARREEKIKSLTRDNVQLLINQLLSLPMKTTTESVGGTGGQSSVMTLLQLPDPTTDLPREKPLPKAKAMTKWEKFAAKKGIKPKERAGKMIYDEASGEWVPKWGYKGANKKLDDQWLVEVDDKVKGTDNELIDPRTLNRAERKRLVKKNEKQQRRNMKNAL
MGSDKIHHHHHHMSANTQSMIFTVYGDYIRHYGNQIWVGSLIRLLKEFGHNEQAVRVAVSRMVKQGWLTSQKQGTKSFYSLTPRGVERMEEAARRIYKSTPHVWDGKWRTLMYTIPEDKRQIRDELRKELSWSGFGNLSNGVWISPNPLEKEAERLIEAYDIKAYIDFFVGEYHGPQQDQSLVERAFPLDELQERYEQFIAEYSRRYIVHQSRIQLGEMDEEQCFVERTTLVHEYRKFLFTDPGLPQELLPDEWSGHHAALLFEQYYRLLAEPASRFFESIFRETHDVTQKSADYDASEHPLFAER
MGSDKIHHHHHHMSAPPLCVTVCGGGRTGHLNAILFAQRPGVRVKLLTRNHHIAARQDAVLTGLLPDGATLTASAGMVTDDPAVALRDADIVIITVPAHARPSLLREIVAHLPEGKAVYVGAIPGFCGFDWLAGALLAQRPNAVIWGMKDVPHTAFALDPGVSVRMGGVKQRLYVGCHAREQRAARQALLSHLNRLYDASVELLDSYLEITLTPGNPIMHSAVIYGLIGPYGQWHGRALPTPLCWWTDCPELSAYFLERADEESQRLCQAVARRLGVDLSSVKPLRQEIVDAYGDQIQDPSTMLSVLRTNRAYADIEAPLVPTSGGYLVDTSSRAFHEDVAYGLATLVEMARRLGVDTPHLREIFEWNVTYMGGLRGSALDYFPEFWPR
